# According to article PMC8964761:
# pKd: −log10 of the molar value.
# Tests used:
# dimeric suPAR (human) [1] = biological target: dimeric suPAR (human) (UniProt Q03405); assay: SPR; Biacore T200; suPAR monomer or dimer captured on anti-uPAR antibody immobilised on a CM5 chip; ATF (0.14-33.3 nM) or scuPA (0.54-44.4 nM) flowed over; 10 mM HEPES, 150 mM NaCl, 3 mM EDTA, 0.005% P-20, pH 7.4, 20 °C; 1:1 Langmuir fit
# dimeric suPAR (human) [2] = biological target: dimeric suPAR (human) (UniProt Q03405); assay: SEC; suPAR dimer mixed with excess ATF, 30 min at room temperature; complex purified on Superdex 200 10/300 (20 mM Tris pH 7.4, 150 mM KCl) and quantified by SDS-PAGE
# FITC conjugated ATF = assay: high-content fluorescence imaging of FITC-ATF on 293T cells (FITC/mRuby3 intensity ratio); conditions: FITC-ATF for 1 h; uPAR-mRuby3 expressing 293T cells; parent: est. 0.41; read off a plot
# Sequence of UniProt Q03405 (Q03405 23-299): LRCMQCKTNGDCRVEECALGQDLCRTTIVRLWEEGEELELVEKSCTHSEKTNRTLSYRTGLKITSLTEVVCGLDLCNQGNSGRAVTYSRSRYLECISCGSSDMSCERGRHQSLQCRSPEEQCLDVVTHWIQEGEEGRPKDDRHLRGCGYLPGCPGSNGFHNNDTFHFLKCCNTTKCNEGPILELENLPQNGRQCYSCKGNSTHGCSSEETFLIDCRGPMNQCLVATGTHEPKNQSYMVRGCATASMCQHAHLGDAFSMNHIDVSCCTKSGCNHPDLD
pKd (dimeric suPAR (human) [1]),stoichiometry N (ATF molecules per uPAR dimer) (dimeric suPAR (human) [2]),response (FITC conjugated ATF),Substance
9.17,2,,amino terminal fragment of uPA (ATF) (domain or fragment)
,,0.43,uPAR^WT fused with mRuby3 (suPAR-mRuby3-GPI) (from UniProt Q03405) E49P
,,0.27,uPAR^WT fused with mRuby3 (suPAR-mRuby3-GPI) (from UniProt Q03405) H47C; N259C
